The text below walks through data of paper PMC4951027.

The target in assay [1] is ecto-domain of integrin α5β1-Fc fusion protein. Description: SPR.
Assay [2] has as its target Fn N-terminal domain fragment (Fn-NTD) (human). Kind of assay: SPR. To be noted: domain or fragment.

Fn N-terminal domain fragment (Fn-NTD) (human), sequence (P02751 32-290): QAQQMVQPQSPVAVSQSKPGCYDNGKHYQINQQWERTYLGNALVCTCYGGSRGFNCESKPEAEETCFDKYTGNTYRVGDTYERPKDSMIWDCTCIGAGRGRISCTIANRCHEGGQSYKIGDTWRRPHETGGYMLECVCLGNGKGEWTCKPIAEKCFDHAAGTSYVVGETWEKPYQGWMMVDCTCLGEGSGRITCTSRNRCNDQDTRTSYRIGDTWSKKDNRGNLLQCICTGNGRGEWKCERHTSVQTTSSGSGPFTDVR

The Kd is the free concentration of one partner at which half of the binding sites on the other are occupied at equilibrium, for simple one-to-one binding. A low value points to higher affinity. As to “Fn + BBK32 (BBK32-bound Fn) (from UniProt O50835 21-205) (complex)”, in assay [1], the Kd came to 0.17 µM; the ka1 (first step, bivalent analyte model) is 75000 M⁻¹ s⁻¹; the ka2 (second step, bivalent analyte model) was found to be 8e-06 RU^-1s^-1; the kd1 (first step, bivalent analyte model) turned out to be 0.012 s⁻¹. Moreover, the kd2 (second step, bivalent analyte model) in assay [1] came out at 0.001 s⁻¹.
Turning to GST-FnBPA-3, in assay [2], the Kd was 10 µM.
